Measurements: the supplement of paper PMC9170038

Tested on: MS2 coat protein
Assay: apparent KD of MS2 coat protein; designed switch direction (-1 OFF switch, 1 ON switch): -1; higher = weaker reporter binding
Summary of the method: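 SNAP-549-labelled MS2 coat protein was titrated, doubling from 0.7 or 1.5 nM to 3 µM, over designed RNA switches transcribed on Illumina chips by stalled E. coli RNA polymerase. Runs were done without input, with 200 uM small-molecule ligand, or with an oligonucleotide input. Apparent KD is the per-design median over clusters of curve-fitted normalised fluorescence.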

[1] = input ligand: microRNA oligo, concentration not stated
[2] = Eterna round: R95, input ligand: FMN 200 uM
[3] = Eterna round: R95, input ligand: microRNA oligo, concentration not stated
[4] = Eterna round: R95, input ligand: none

Sequence: GUGCUAUAGGAAGGAUAUACUUCAUUAGACUAACAUGAGGAUCACCCAUGUAACCUUAUGUAUGUGUAGAAGGUCCAUAGCUUA (Eterna round: R96, puzzle: Exclusion NG 2)
- apparent KD of MS2 coat protein (input ligand: FMN 200 uM): 15.5 nM
- apparent KD of MS2 coat protein [1]: 13.3 nM
- apparent KD of MS2 coat protein (input ligand: none): 20.1 nM

Sequence: GAUUAUGCGAGCUUUAGGGACAUGAGGAUCACCCAUGUUCGUCUUAUUGGUCUAAAUGCACUGACAUACCUAAAUCU [JMF 74] (puzzle: Sensor v3, turn-off variant 1)
- apparent KD of MS2 coat protein [2]: 14.9 nM
- apparent KD of MS2 coat protein [3]: 19.8 nM
- apparent KD of MS2 coat protein [4]: 16.7 nM

Sequence: GCGCACUAAGUGAGGAUAUCGAUUUUUUUUAGGAUCGAGAAGGCACAUGAGGAUCACCCAUGUUUGACGUGCGC [JR_BMOE4_Sub098] (puzzle: Brourd's mod of Exclusion 4)
- apparent KD of MS2 coat protein [3]: 15 nM

Sequence: AAGAAACAUGAGGAUCACCCAUGUGAGGAUAUGAUCAAGAAAAGAAAAGAAAGAAGAUUCAGAAGGCACAAAGG [salish99-ex1_r3_056] (puzzle: Exclusion 1)
- apparent KD of MS2 coat protein [2]: 124 nM
- apparent KD of MS2 coat protein [3]: 160 nM
- apparent KD of MS2 coat protein [4]: 362 nM

Sequence: AGCCAUACAGGAUAUGCCCGGGAUAACAUGAGGAUCACCCAUGUGACCGAUUCAUGUCCUGCAGAAGGGUAUGGGA [Mod of ViennaUCT 3 - Jieux - Exclusion 5] (Eterna round: R97, puzzle: Exclusion 5)
- apparent KD of MS2 coat protein (input ligand: FMN 200 uM): 31.7 nM
- apparent KD of MS2 coat protein (input ligand: none): 16.8 nM

Sequence: AGGGUUUGAGGAUAUAUCUGGUGGGACAUGAGGAUCACCCAUGUUCAUGUCGUAUCCUCAGUAGAAGGCAGACAGG [Eternabot (Original) Solution 14] (Eterna round: R97, puzzle: Exclusion 5)
- apparent KD of MS2 coat protein (input ligand: FMN 200 uM): 13.2 nM
- apparent KD of MS2 coat protein (input ligand: none): 13.4 nM

Sequence: CGAUGUGGAGUGAGGAUAUCGUGUUCGAAAGAACGUGAGAAGGCACAUGAGGAUCACCCAUGUGAUUCACGUCG [Omei Ex4B A6] (Eterna round: R97, puzzle: Brourd's mod of Exclusion 4)
- apparent KD of MS2 coat protein (input ligand: FMN 200 uM): 28 nM
- apparent KD of MS2 coat protein (input ligand: none): 15.6 nM

Sequence: GGACAUAAAGUCAGGAUAUUAAUGCGAACAAGCGAUGAGAAGGGACAUGAGGAUCACCCAUGUGAUUCUCAUCA [Edvebe] (Eterna round: R97, puzzle: Brourd's mod of Exclusion 4)
- apparent KD of MS2 coat protein (input ligand: FMN 200 uM): 17.6 nM
- apparent KD of MS2 coat protein (input ligand: none): 16.5 nM

Sequence: AAGGCGCGCGUAGGAUAUCACCGCAAAAGUCGAUGAGAAGGGCGAGUGCAUGGUGUCCUAACUUGAGGAUCACCCAAGUAAAGA [Mutated MS2 EX1.22] (Eterna round: R96, puzzle: Exclusion NG 1)
- apparent KD of MS2 coat protein (input ligand: FMN 200 uM): 67.9 nM
- apparent KD of MS2 coat protein [1]: 41.5 nM
- apparent KD of MS2 coat protein (input ligand: none): 56.5 nM

Sequence: AUCGUGUGAGGAUAUCGAUGUUGGACGUCUAGGUCUGUGCGCGAGAAGGCACAUGAGGAUCACCCAUGUAAUGG [jl-ex4-4.26 ViennaUCT mod] (Eterna round: R97, puzzle: Exclusion 4)
- apparent KD of MS2 coat protein (input ligand: FMN 200 uM): 137 nM
- apparent KD of MS2 coat protein (input ligand: none): 347 nM

Sequence: GGAUCGAGUGUGAGGAUAUACCUAUGGAUACAUAGGUAGAAGGCACAUGAGGAUCACCCAUGUUCCAACGGUCC [Eli bmx4 4.11] (Eterna round: R97, puzzle: Brourd's mod of Exclusion 4)
- apparent KD of MS2 coat protein (input ligand: FMN 200 uM): 817 nM
- apparent KD of MS2 coat protein (input ligand: none): 108 nM

Sequence: CACCGUUAUAUAGGAUAUGUUACAUGAGGAUCACCCAUGUAAUAAAUGAGAAUUUCGAAUGUAAUACAGAAGGAUAGAAUCGGC [Ostracism 72 - Jieux - Exclusion NG 2] (Eterna round: R96, puzzle: Exclusion NG 2)
- apparent KD of MS2 coat protein (input ligand: FMN 200 uM): 27.2 nM
- apparent KD of MS2 coat protein [1]: 18.1 nM
- apparent KD of MS2 coat protein (input ligand: none): 22.9 nM

Sequence: ACAGUUUUGCAAGGAUAUCGUUUUAGUUUAUUACGAGAAGGUGCUUUAGUUAUUUCUUUGGGUUGACAUGAGGAUCACCCAUGU [JR_ExcNG1_Sub057] (Eterna round: R96, puzzle: Exclusion NG 1)
- apparent KD of MS2 coat protein (input ligand: FMN 200 uM): 136 nM
- apparent KD of MS2 coat protein [1]: 144 nM
- apparent KD of MS2 coat protein (input ligand: none): 148 nM

Sequence: UAAGAUUACCGAGGAUAUGCUGGUUUCUAUUAAGCAGAAGGCGGACUCAACAUGAGGAUCACCCAUGUAAGAAGGGUAUUAGAU [Ex NG1 #9] (Eterna round: R96, puzzle: Exclusion NG 1)
- apparent KD of MS2 coat protein (input ligand: FMN 200 uM): 89.8 nM
- apparent KD of MS2 coat protein [1]: 82.1 nM
- apparent KD of MS2 coat protein (input ligand: none): 94.8 nM

Sequence: AAUAACAGAGGAUAUACUGUUUUAUGUGUUUGUUGUUUUGAACAUGAGGAUCACCCAUGUAGAAGGCUGAAUGA [JMF 68] (puzzle: Exclusion 2)
- apparent KD of MS2 coat protein [3]: 24.2 nM

Sequence: AACAGUACAGGAUAUACAUGAGGAUCACCCAUGUGAGAAACCACUGGCGUACCAGAAAGUAGAAGGGUACUGGA [Moding Maslow Revisited (73) 29] (Eterna round: R96, puzzle: Exclusion 3)
- apparent KD of MS2 coat protein (input ligand: FMN 200 uM): 307 nM
- apparent KD of MS2 coat protein [1]: 160 nM
- apparent KD of MS2 coat protein (input ligand: none): 146 nM

Sequence: UUCCUCGUUGUGAGGAUAUCGUCCUAUUUUUGUUACGAGAAGGCACAUGAGGAUCACCCAUGUUACUUGAUGUU [JR_BMOE4_Sub071] (Eterna round: R96, puzzle: Brourd's mod of Exclusion 4)
- apparent KD of MS2 coat protein (input ligand: FMN 200 uM): 188 nM
- apparent KD of MS2 coat protein [1]: 21.1 nM
- apparent KD of MS2 coat protein (input ligand: none): 26 nM

Sequence: GUUUCACAUGAGGAUCACCCAUGUGAGGAUAUGUUAUUAAUGGCGAUAGUUAUUGGUGGCAGAAGGCGCGUGAU [JR_Exc1_Sub010] (Eterna round: R97, puzzle: Exclusion 1)
- apparent KD of MS2 coat protein (input ligand: FMN 200 uM): 115 nM
- apparent KD of MS2 coat protein (input ligand: none): 50.2 nM

Sequence: GGUACUCAUGUGAGGAUAUGCUCGAAUGCAGACGAGCAGAAGGUACAUGAGGAUCACCCAUGUACCAUAAAGUA [Eternabot (Original) Solution 1] (Eterna round: R97, puzzle: Brourd's mod of Exclusion 4)
- apparent KD of MS2 coat protein (input ligand: FMN 200 uM): 23.6 nM
- apparent KD of MS2 coat protein (input ligand: none): 13.1 nM

Sequence: AUUAACUUAGGAUAUACAUGAGGAUCACCCAUGUCCCACCCGUUACCCAUGACCAUAUGUAGAAGGAAGAAGAA [Exy#9] (Eterna round: R97, puzzle: Exclusion 3)
- apparent KD of MS2 coat protein (input ligand: FMN 200 uM): 32.2 nM
- apparent KD of MS2 coat protein (input ligand: none): 39.5 nM

Sequence: AGUACUAUGCGUGCUGACAUGCGUAGUGCAGCAGGUGUUACAUGAGGAUCACCCAUGUCCUCAUUUGCUCGUCUUAA [Mat - Sensor v3 - Turn-off var 2 - D16] (puzzle: Sensor v3, turn-off variant 2)
- apparent KD of MS2 coat protein [2]: 88 nM
- apparent KD of MS2 coat protein [3]: 115 nM
- apparent KD of MS2 coat protein [4]: 97.6 nM

Sequence: UGCAAGCUUUUAAGAUCCUACAUGAGGAUCACCCAUGUGCUCGUCUUAUAACGUACUGUGACGAAAGUCACGGUACG [JL TOV1 3.95] (Eterna round: R97, puzzle: Sensor, turn-off variant 1)
- apparent KD of MS2 coat protein (input ligand: FMN 200 uM): 105 nM
- apparent KD of MS2 coat protein (input ligand: none): 114 nM

Sequence: ACAAGCUUAGGUUUUCAUAACAUGAGGAUCACCCAUGUUCGUCUUAUAAAAAUAAAAAUAAAAAACAAAAAAUAAAA [Sensor V2: 66] (Eterna round: R96, puzzle: Sensor v2, turn-off variant)
- apparent KD of MS2 coat protein (input ligand: FMN 200 uM): 39.1 nM
- apparent KD of MS2 coat protein [1]: 117 nM
- apparent KD of MS2 coat protein (input ligand: none): 41.2 nM

Sequence: UUUAGUAUCUAGGAUAUCUAGUACAUAGUAUCUAGAGAAGGAGAUACAUGAGGAUCACCCAUGUUCUGUGAUCU [Exclusion 6 - 2:b] (puzzle: Exclusion 6)
- apparent KD of MS2 coat protein [3]: 118 nM

Sequence: AGGUCACAUGAGGAUCACCCAUGUGAGGAUAUAGACUCAAGAGCUUCGGCUCUCAAGUUUAGAAGGCGCUAUGA [EX1 #51] (Eterna round: R97, puzzle: Exclusion 1)
- apparent KD of MS2 coat protein (input ligand: FMN 200 uM): 25.8 nM
- apparent KD of MS2 coat protein (input ligand: none): 26.3 nM

Sequence: GGUCAAGAACAGCUCCGCGCUGCCCUUGACCGCUCAUUUACAUGAGGAUCACCCAUGUUUUUUGCUUGUCUUGUUUC [Bebiesgebe] (puzzle: Sensor v3, turn-off variant 2)
- apparent KD of MS2 coat protein [2]: 20 nM
- apparent KD of MS2 coat protein [3]: 127 nM
- apparent KD of MS2 coat protein [4]: 22.6 nM

Sequence: ACAAGCUUGUAAUGAUUGAACAUGAGGAUCACCCAUGUAAAUGGAAGAACCAAUUUGAUAAGAUAUACUCGUCUUAU [JR_STOV1_Sub007] (Eterna round: R97, puzzle: Sensor, turn-off variant 1)
- apparent KD of MS2 coat protein (input ligand: FMN 200 uM): 57.8 nM
- apparent KD of MS2 coat protein (input ligand: none): 59.1 nM

Sequence: CGUGUGUCAGGAUAUUAGUAAUGUAUGGAUACAUAUAUUACUGAGAAGGGACAUGAGGAUCACCCAUGUAUACG [JR_Ex4_Sub059] (Eterna round: R97, puzzle: Exclusion 4)
- apparent KD of MS2 coat protein (input ligand: FMN 200 uM): 158 nM
- apparent KD of MS2 coat protein (input ligand: none): 79.9 nM

Sequence: AGCUGUGGCCGAGGAUAUCCAACUUCAAAUACCGACGUAUAGUCGGACAUGAGGAUCACCCAUGUGGAGAAGGCGGUCUCAGCA [Eli eng2 - 038] (Eterna round: R96, puzzle: Exclusion NG 2)
- apparent KD of MS2 coat protein (input ligand: FMN 200 uM): 24.2 nM
- apparent KD of MS2 coat protein [1]: 12.5 nM
- apparent KD of MS2 coat protein (input ligand: none): 15.6 nM

Sequence: ACGAAAGCAAACAGGUGAAACAUGAGGAUCACCCAUGUCCUCAUUUGCUCGUCUUAUAAGCUAUGCGAAAGCAUAGC [Mat - Sensor v3 - turn-off var 1 - Eli Mod - D53] (puzzle: Sensor v3, turn-off variant 1)
- apparent KD of MS2 coat protein [2]: 60.4 nM
- apparent KD of MS2 coat protein [3]: 1270 nM
- apparent KD of MS2 coat protein [4]: 72.4 nM

Sequence: UUUUACAUAGGAUAUAGUUUGUUGUACAUGAGGAUCACCCAUGUUGUUGGUUGUGCUGUUCUAGAAGGAUGUUUCU [JR_E5_Sub014] (puzzle: Exclusion 5)
- apparent KD of MS2 coat protein [3]: 37.3 nM

Sequence: AAGCGGUGAGGAUAUACAUGAGGAUCACCCAUGUGUAUGCAGAGGGCGCGGUGUUGGUGUAGAAGGCACUGGGA [EX3 B.10] (Eterna round: R97, puzzle: Exclusion 3)
- apparent KD of MS2 coat protein (input ligand: FMN 200 uM): 23 nM
- apparent KD of MS2 coat protein (input ligand: none): 19.4 nM

Sequence: CAGCUGAAAGUGAGGAUAUCUAGAGCGAUAGCUCUAGAGAAGGCACAUGAGGAUCACCCAUGUGAUCACAGCUG [BmEx4/7-A4] (Eterna round: R97, puzzle: Brourd's mod of Exclusion 4)
- apparent KD of MS2 coat protein (input ligand: FMN 200 uM): 1320 nM
- apparent KD of MS2 coat protein (input ligand: none): 249 nM
